Test [1] concerns the target T1, human PLAP (ALPP) expressed on CHO-K1 cells (human, UniProt P05187 23-506). The test is described as follows: cell-based or functional assay.
Test [2] concerns the target T2, cynomolgus PLAP (ALPP) expressed on CHO-K1 cells (cynomolgus, UniProt P05187 23-452 (human entry)).
T2 chain: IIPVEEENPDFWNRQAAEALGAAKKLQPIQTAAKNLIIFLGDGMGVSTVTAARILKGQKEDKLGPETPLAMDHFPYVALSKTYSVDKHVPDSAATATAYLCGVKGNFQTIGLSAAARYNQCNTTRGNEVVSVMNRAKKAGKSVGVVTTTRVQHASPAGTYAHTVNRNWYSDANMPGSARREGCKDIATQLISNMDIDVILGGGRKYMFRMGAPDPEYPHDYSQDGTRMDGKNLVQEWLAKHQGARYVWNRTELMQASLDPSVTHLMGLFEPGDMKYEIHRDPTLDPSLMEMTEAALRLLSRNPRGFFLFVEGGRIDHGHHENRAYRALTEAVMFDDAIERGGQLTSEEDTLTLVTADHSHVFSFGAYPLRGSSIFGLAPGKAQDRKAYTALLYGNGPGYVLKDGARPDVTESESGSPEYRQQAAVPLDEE
The test is described as follows: cell-based or functional assay.

For test [3], the target named is T3, Human CD3ε stalk-Fc(knob)-Avi/CD3δ stalk-Fc(hole) (human).
T3 construct: Heterodimer of CD3 delta and CD3 epsilon ectodomains fused to a human Fc domain with knob-into-hole modifications and C-terminal Avi-tag; also called human CD3ε/δ; CD3ε/δ
Briefly: SPR (Biacore T200, 25°C); TCB captured by anti-PG antibody on CM5 chip, 300 nM human CD3ε/δ injected; relative active concentration. On the procedure:
SPR experiments were performed on a Biacore T200 instrument (GE Healthcare) at 25° C. with HBS-P+(10 mM HEPES, 150 mM NaCl pH 7.4, 0.05% Surfactant P20) as running and dilution buffer. Anti-PG antibody (see Example 3) was immobilized by amine coupling (using amine coupling kit, Cytiva #BR100050) at a density of >6000 RU on a CM5 Chip (Sensor Chip CM5, Cytiva #29104988). The 10 nM solutions of TCB molecule samples in HBS-P+ were captured for 30 sec at a flow rate 10 μl/min. Then a 300 nM solution of human CD3ε/δ (see Example 3, SEQ ID NOs 24 and 25) was injected for 150 sec association time and 120 sec dissociation time at a flow rate of 10 μl/min. The regeneration of the surface followed by a 35 sec regeneration step with a 20 mM NaOH solution. The data were analyzed with the Biacore T200 Evaluation and Excel software. For the calculation of relative active concentration (RAC) the binding report point (BRP) was used (the BRP is a standard readout point in SPR, maximum response (unit/value) of interaction between antigen and antibody).

Test [4] deals with human ALPG (ALPPL2) expressed on CHO-K1 cells (human, UniProt P10696 20-503). The test is described as follows: cell-based or functional assay.
The target in test [5] is T1, human PLAP (ALPP) expressed on CHO-K1 …. Briefly: cell-based or functional assay. The source holds these as a separate data set.

T1 sequence (P05187 23-506): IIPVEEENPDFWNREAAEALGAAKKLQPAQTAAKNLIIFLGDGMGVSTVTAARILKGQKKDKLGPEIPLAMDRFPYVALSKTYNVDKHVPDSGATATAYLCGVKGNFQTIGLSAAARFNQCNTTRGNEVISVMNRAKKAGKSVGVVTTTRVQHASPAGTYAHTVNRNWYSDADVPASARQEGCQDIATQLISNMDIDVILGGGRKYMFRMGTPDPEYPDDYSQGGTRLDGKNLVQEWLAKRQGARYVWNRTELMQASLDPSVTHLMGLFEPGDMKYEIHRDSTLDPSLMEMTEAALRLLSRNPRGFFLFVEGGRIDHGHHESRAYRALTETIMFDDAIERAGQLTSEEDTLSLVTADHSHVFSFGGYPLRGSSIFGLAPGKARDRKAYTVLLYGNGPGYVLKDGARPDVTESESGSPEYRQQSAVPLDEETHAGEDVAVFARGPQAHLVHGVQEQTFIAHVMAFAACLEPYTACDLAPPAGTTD

B1: PLAP H1 CD3 P035.093 TCB (bispecific antibody, human IgG1, kappa, L234A L235A)
heavy 1: not shown
heavy 2: QVQLQESGPGLVKPSETLSLTCTVSGFSLTSYGVSWIRQPPGKGLEWIGVIWEDGSTNYHSALISRVTISVDTSKNQFSLKLSSVTAADTAVYYCARPHYGSSYVGAMEYWGAGTTVTVSSASTKGPSVFPLAPSSKSTSGGTAALGCLVEDYFPEPVTVSWNSGALTSGVHTFPAVLQSSGLYSLSSVVTVPSSSLGTQTYICNVNHKPSNTKVDEKVEPKSCDKTHTCPPCPAPEAAGGPSVFLFPPKPKDTLMISRTPEVTCVVVDVSHEDPEVKFNWYVDGVEVHNAKTKPREEQYNSTYRVVSVLTVLHQDWLNGKEYKCKVSNKALGAPIEKTISKAKGQPREPQVCTLPPSRDELTKNQVSLSCAVKGFYPSDIAVEWESNGQPENNYKTTPPVLDSDGSFFLVSKLTVDKSRWQQGNVFSCSVMHEALHNHYTQKSLSLSP
light 1: DIQMTQSPSSLSASVGDRVTITCRASENIYSYVAWYQQKPGKAPKLLIYNAKSLASGVPSRFSGSGSGTDFTLTISSLQPEDFATYYCQHHYVSPWTFGGGTKLEIKRTVAAPSVFIFPPSDRKLKSGTASVVCLLNNFYPREAKVQWKVDNALQSGNSQESVTEQDSKDSTYSLSSTLTLSKADYEKHKVYACEVTHQGLSSPVTKSFNRGEC
light 2: EVQLLESGGGLVQPGGSLRLSCAASGFTFSSYAMNWVRQAPGKGLEWVSRIRSKYNNYATYYADSVKGRFTISRDDSKNTLYLQMNSLRAEDTAVYYCVRASNFPASYVSYFAYWGQGTLVTVSSASVAAPSVFIFPPSDEQLKSGTASVVCLLNNFYPREAKVQWKVDNALQSGNSQESVTEQDSKDSTYSLSSTLTLSKADYEKHKVYACEVTHQGLSSPVTKSFNRGEC
notes: also called PLAP H1 TCB; PLAP (H1) TCB
B1: the “EC50 (pM), Jurkat NFAT reporter assay to show cynomolgus cross-reactivity” value (shortened to “EC50 (pM) … to show cynomolgus cross-reactivity”) in test [1] was found to be 98 pM. Also, in test [2], the “EC50 (pM) … to show cynomolgus cross-reactivity” value came out at 45 pM. For the same molecule, in test [3], the “RAC % of CD3 binding, stress A” value was found to be 100%; the “RAC % of CD3 binding, stress B” value was 98%; the “RAC % of CD3 binding, unstressed” value was 100%. The “EC50 (pM), Jurkat NFAT reporter assay (luminescence, 6 h)” value (from here on “EC50 (pM) … (luminescence, 6 h)”) in test [4] was found to be 40 pM. For the same molecule, the “EC50 (pM) … (luminescence, 6 h)” value in test [5] amounted to 37 pM.

B2: PLAP H5 CD3 P035.093 TCB (bispecific antibody, human IgG1, kappa, L234A L235A)
heavy 1: not shown
heavy 2: QVQLQESGPGLVKPSETLSLTCTVSGGSVTSYGVSWIRQPPGKGLEWIGVIWEDGSTNYHSALISRVTISVDTSKNQFSLKLSSVTAADTAVYYCARPHYGSSYVGAMEYWGAGTTVTVSSASTKGPSVFPLAPSSKSTSGGTAALGCLVEDYFPEPVTVSWNSGALTSGVHTFPAVLQSSGLYSLSSVVTVPSSSLGTQTYICNVNHKPSNTKVDEKVEPKSCDKTHTCPPCPAPEAAGGPSVFLFPPKPKDTLMISRTPEVTCVVVDVSHEDPEVKFNWYVDGVEVHNAKTKPREEQYNSTYRVVSVLTVLHQDWLNGKEYKCKVSNKALGAPIEKTISKAKGQPREPQVCTLPPSRDELTKNQVSLSCAVKGFYPSDIAVEWESNGQPENNYKTTPPVLDSDGSFFLVSKLTVDKSRWQQGNVFSCSVMHEALHNHYTQKSLSLSP
light 1: DIQMTQSPSSLSASVGDRVTITCRASENIYSYVAWYQQKPGKAPKLLIYNAKSLASGVPSRFSGSGSGTDFTLTISSLQPEDFATYYCQHHYVSPWTFGGGTKLEIKRTVAAPSVFIFPPSDRKLKSGTASVVCLLNNFYPREAKVQWKVDNALQSGNSQESVTEQDSKDSTYSLSSTLTLSKADYEKHKVYACEVTHQGLSSPVTKSFNRGEC
light 2: EVQLLESGGGLVQPGGSLRLSCAASGFTFSSYAMNWVRQAPGKGLEWVSRIRSKYNNYATYYADSVKGRFTISRDDSKNTLYLQMNSLRAEDTAVYYCVRASNFPASYVSYFAYWGQGTLVTVSSASVAAPSVFIFPPSDEQLKSGTASVVCLLNNFYPREAKVQWKVDNALQSGNSQESVTEQDSKDSTYSLSSTLTLSKADYEKHKVYACEVTHQGLSSPVTKSFNRGEC
notes: also called PLAP H5 TCB; PLAP (H5) TCB
Regarding B2, in test [1], the “EC50 (pM) … to show cynomolgus cross-reactivity” value came to 37 pM. Further, in test [2], the “EC50 (pM) … to show cynomolgus cross-reactivity” value was found to be 52 pM. In addition, in test [3], the “RAC % of CD3 binding, stress A” value was found to be 97%; the “RAC % of CD3 binding, stress B” value was 99%; the “RAC % of CD3 binding, unstressed” value came to 100%. Besides, in test [4], the “EC50 (pM) … (luminescence, 6 h)” value was found to be 34 pM. In test [5], the “EC50 (pM) … (luminescence, 6 h)” value came out at 36 pM.

The values are drawn from US20240018240A1 (Hoffmann-La Roche, published 2024).
